Assay results taken from US20220135655A1 (Dana-Farber, published 2022).

B1: 9H3 (scFv)
scFv: QVQLVQSGAEVKKPGSSVKVSCKASGGIFSSYAISWVRQAPGQGLEWMGGISPIFGTANYAQKFQGRVTITADESTNTAYMELSSLRSEDTAVYYCARSGGYYDYGVGYDQWGQGTLVTVSSGGGSGGGSGGGSGGGSQPVLTQPPSASGTPGQRVTISCSGGRSNIGSNTVNWYQQLPGTAPKLLIYSNNHRPSGVPDRFSGSKSGNTASLTISGLQAEDEADYYCQSYDSSVVFGGGTKLTVL
B2: 2H4 (anti-H1CA0409) (scFv)
scFv: QVQLVQSGAEVKKPGSSVKVSCKASGVTFSSYAISWVRQAPGQGLEWMGGITPIFGTANYAQKFQGRVTITADQSTSTAYMELSSLRSEDTAVYYCARGGGVFDVWGQGTLVTVSSGGGSGGGSGGGSGGGSSYELTQPPSVSGAPRQRVTISCSGSSSNIGNNAVNWYQQLPGKAPKLLIYYDDMLPSGVSDRFSGSKSGSSASLAISGLQSEDEADYYCAAWDDSLSGPVFGGGTNLTVL
B3: 4C4 (scFv)
scFv: QVQLVQSGAEVKKPGSSVKVSCKASGGTFSSYAISWVRQAPGQGLEWMGGISPMFGTANYAQKFQGRVTITADKSTSTAYMELSSLRSEDTAVYYCAREGGYSPGGVDFDYWGQGTLVTVSSGGGSGGGSGGGSGGGSNFMLTQPHSVSESPGKTVTISCTRSSGSIASTYVQWYRQRPGSAPTTVIYEDHQRPSGVPDRFSGSLDSSSNSASLTISGLRTEDAATYYCQSFDASTLVFGGGTKLTVL
B4: 4F5 (scFv)
scFv: QVQLVQSGAEVKKPGSSVKVSCKASGVTFRSYAISWVRQAPGQGLEWMGGISGIFGTANYAQKFQGRVTITADESTSTAYMELSSLRSEDTAVYYCARSPAYYFGPNMDVWGQGTLVTVSSGGGSGGGSGGGSGGGSQSVLTQPPSVSGAPGQRVTISCTGSSSNIGAGYDVHWYQQLPGTVPKLIIYDNSNRPSGVPARFSGSKSGTSASLAISGLQSEDEAAYYCQSYDSSLSVVVFGGGTKLSVL
B5: 5A8 (scFv)
scFv: QVQLVQSGAEVKKPGSSVKVSCKASGGTFSSYAISWVRQAPGQGLEWMGGISPIFGTANYAQKFQGRVTITADESTSTVYMELSSLRSEDTAVYYCARGPGYHPAGASGQFFDLWGQGTLVTVSSGGGSGGGSGGGSGGGSSYELTQPPSVSKDLRQTATLTCTGNSNNVGNQGAAWLQQHQGHPPKLLSYRNNHRPSGISDRSSASRSGDTASLTITGLQPEDEADYYCSAWDSSLSAWVFGGGTKLTVL
B6: 6F3 (scFv)
scFv: QVQLVQSGAEVKKPGSSVKVSCKASGGPFSSYAISWVRQAPGQGLEWMGGISPMFGTANYAQKFQGRVTITADESTSTVYMELSSLRSEDTAVYYCARGYSYYPGGGGGRNFDYWGQGTLVTVSSGGGSGGGSGGGSGGGSLPVLTQPPSASGTPGQRVTISCSGSSSNIGSNTVNWYQQLPGTAPKLLIYSNNQRPSGVPDRFSGSKSGTSASLAISGLQSEGEADYYCAAWDDSLKGRVFGGGTKVTVL
B7: 2H3 (scFv)
scFv: QVQLVQSGAEVKKPGSSVKVSCKASGGPFSSYAISWVRQAPGQGLEWMGGIIPIFGTANYAQKFQGRVTITADESTSTAYMELSSLRSEDTAVYYCARGTDYSGYRGFDVWGQGTLVTVSSGGGSGGGSGGGSGGGSQTVVTQEPSFSVSPGGTVTLTCALSSGSVSSFNYASWYQQTPGQAPRTLISNTNTRSSGVPDRFSGSILGNKATLTITGAQADDESHYYCALYVGGGISVFGGGTKLTVL
B8: 2G3 (scFv)
scFv: QVQLVQSGAEVKKPGSSVKVSCKASGGTFRSYAISWVRQAPGQGLEWMGGIMPIFGTANYAQKFQGRVTITADESTTTVYMELSSLRSEDTAVYYCARGAGVSAGPSWPFDVWGQGTLVTVSSGGGSGGGSGGGSGGGSQPGLTQPPSVSKDLRQTATLTCTGNSNNVGKQGATWLQQHQGHPPKLLSYRNNNRPSGISERFSASRSGDTASLTITGLQPEDEADYYCSAWDSSLSVWVFGGGTKLTVL
B9: 5B9 (scFv)
scFv: QVQLVQSGAEVKKPGSSVKVSCKASGVTFSSYAISWVRQAPGQGLEWMGGISPMFGTANYAQKFQGRVTITADESTNTAYMELSSLRSEDTAVYYCARGRGYAPDALTNFDVWGQGTLVTVSSGGGSGGGSGGGSGGGSEIVLTQSPDSLAMSLGERATVNCKSSRSLFDSSDNKNYLAWYQKKPGQPPQLLIYWASTRQSGVPDRFSGSGSGTDFTLTISSLQAEDVAVYYCQQYFSSPPIFTFGPGTKVEIK

Biological target: A/California/04/2009 (H1CA0409) recombinant HA (influenza A virus A/California/04/2009, UniProt P26140 18-529)
Assay: phage display panning (immunotube) against trimeric HA

Row | Binder | binding result
1 | B1 | binds
2 | B2 | binds
3 | B3 | binds
4 | B4 | binds
5 | B5 | binds
6 | B6 | binds
7 | B7 | binds
8 | B8 | binds
9 | B9 | binds
